{"source": "patent WO2010028797A1", "about": "(dated 2010)", "target": "human CCR5 (human, UniProt P51681 1-352)", "sequence (P51681 whole entry)": "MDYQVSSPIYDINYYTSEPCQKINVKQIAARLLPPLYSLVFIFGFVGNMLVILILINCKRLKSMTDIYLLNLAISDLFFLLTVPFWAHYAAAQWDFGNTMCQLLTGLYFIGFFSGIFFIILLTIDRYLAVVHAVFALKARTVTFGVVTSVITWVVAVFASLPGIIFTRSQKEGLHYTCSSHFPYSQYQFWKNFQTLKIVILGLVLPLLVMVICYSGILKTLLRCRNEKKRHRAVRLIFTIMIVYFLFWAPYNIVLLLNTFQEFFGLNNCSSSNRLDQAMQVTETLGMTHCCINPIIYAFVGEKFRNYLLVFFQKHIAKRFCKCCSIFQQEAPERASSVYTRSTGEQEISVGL", "assay": "cell-based or functional assay"}
{"binder": "BN-1000 (antibody, V domains shown) VH: QVQLKQSGPGLVRPSQSLSITCTVSGFPLGIFGVHWVRQSPGKGLEWLGVIWKGGNTDYNAAFMSRLRITKDNSKSQVFFRMNSLQTDDTAIYYCAKVNLADAMDYWGQGTSVIVSS VL: DIQMTQSPASLSASVGETVTITCRASGNIHGYLAWFQQKQGKSPQLLVYNTKTLAEGVPSRFSGSGSGTQFSLKINSLQPEDFGNYYCQHHYDLPRTFGGGTKLEIK", "values": [{"measurement": "IC50, antiviral assay in PBMC (HIV-1 NLBaL, p24 ELISA)", "result": 1.08, "unit": "nM"}]}
